Results published in PMC6258952, “Visualization of Calcium Ion Loss from Rotavirus during Cell Entry” (Journal of Virology, 2018).

Assays:
[1] = biological target: VP5 CT fragment from sequential chymotrypsin-trypsin digestion of VP4 Rhod5F (rhesus rotavirus (RRV)); experiment: SDS-PAGE of unboiled and boiled samples; VP4 469C-Rhod5F digested with chymotrypsin (37°C, 30 min) then trypsin (room temperature, 1 h); reducing sample buffer (200 mM DTT), boiled at 95°C for 3 min or kept at room temperature for 3 min; 5-to-20% gradient gel, UV light and Coomassie blue
[2] = biological target: T1, wild-type recombinant VP4 labeled with pHrodo Red succinimidyl ester (rhesus rotavirus (RRV), UniProt P12473 1-776, pHrodo Red succinimidyl ester, 1 dye molecule per 2 VP4 monomers (residues not stated)); experiment: co-sedimentation; recoating of labeled DLP: 100 mM sodium acetate pH 5.2, VP4 at 0.9 mg/ml (~33-fold excess) 1 h at room temperature, then VP7 in 2.3-fold excess with 1 mM CaCl2 for 1 h; recoated particles separated from excess components by cesium chloride gradient centrifugation; dyes seen on single particles by confocal imaging; conditions: both partners purified
T1 construct: VP4, outer layer spike protein of rhesus rotavirus (RRV), wild type; also called VP4-pHrodo Red; wt VP4; source: Sf9 cells infected with a baculovirus vector, purified (ammonium sulfate, Phenyl HP, HiTrap Q, S200)

[3] = biological target: T2, VP4 mutated at position 469 from serine to cysteine (rhesus rotavirus (RRV), UniProt P12473 1-776, S469C); experiment: as above; conditions: both partners purified
T2 construct: VP4, outer layer spike protein of rhesus rotavirus (RRV), with S469C; Unlabeled during recoating; It was labeled on the purified rcTLP afterwards with DBCO-maleimide and Rhod5F azide; also called VP4 469C; S469C; source: Sf9 cells infected with a baculovirus vector, purified (ammonium sulfate, Phenyl HP, HiTrap Q, S200)

[4] = biological target: T3, wild-type recombinant VP4 labeled with Atto 565 NHS ester (rhesus rotavirus (RRV), UniProt P12473 1-776, Atto 565 NHS ester, about 1 dye molecule per VP4 monomer (residues not stated)); experiment: as above; conditions: both partners purified
T3 construct: VP4, outer layer spike protein of rhesus rotavirus (RRV), wild type; also called VP4-565; rVP4; source: Sf9 cells infected with a baculovirus vector, purified (ammonium sulfate, Phenyl HP, HiTrap Q, S200)

Row | Molecule | stoichiometry N [1] | binding result [2] | binding result [3] | binding result [4]
1 | VP5 CT fragment from sequential chymotrypsin-trypsin digestion of VP4 Rhod5F (domain or fragment) | 3 |  |  | 
2 | Atto 488 NHS ester-labeled VP7 (natural protein, Atto 488 NHS ester (residues not stated), VP7, Ca2+-stabilized outer layer protein of rhesus rotavirus (RRV); also called VP7-488) QNYGINLPITGSMDTAYANSTQEETFLTSTLCLYYPTEAATEINDNSWKDTLSQLFLTKGWPTGSVYFKEYTDIASFSVDPQLYCDYNVVLMKYDATLQLDMSELADLILNEWLCNPMDITLYYYQQTDEANKWISMGSSCTIKVCPLNTQTLGIGCLTTDTATFEEVATAEKLVITDVVDGVNHKLDVTTATCTIRNCKKLGPRENVAVIQVGGSDVLDITADPTTAPQTERMMRINWKKWWQVFYTVVDYVNQIIQAMSKRSRSLNSAAFYYRI |  | binds | binds | binds
